{
  "source": "paper PMC3615468",
  "about": "(Nature Communications, 2013)",
  "biological_target": "the molecule itself",
  "experiment": "SEC",
  "data": [
    {"protein": "Recombinant CIDE-N domain of mouse Fsp27 (a.a. 39-119) (domain or fragment, UniProt P56198 39-119, looked up) TPRARPCRVSTADRKVRKGIMAHSLEDLLNKVQDILKLKDKPFSLVLEEDGTIVETEEYFQALAKDTMFMVLLKGQKWKPP", "values": [
      {"measurement": "stoichiometry N", "value": 2}
    ]}
  ]
}
